From patent publication US20260139049A1 (PEDIATRIC IMMUNITY AND HEALTHCARE GUANGZHOU BIOTECHNOLOGY, published 2026) come the findings set out here.

Assay [1] has as its target T1, human CLDN6 (human, UniProt P56747 1-220).
T1 construct: whole, on cells; four-transmembrane protein; also called claudin-6; HEK293T-CLDN6
T1 sequence (looked up): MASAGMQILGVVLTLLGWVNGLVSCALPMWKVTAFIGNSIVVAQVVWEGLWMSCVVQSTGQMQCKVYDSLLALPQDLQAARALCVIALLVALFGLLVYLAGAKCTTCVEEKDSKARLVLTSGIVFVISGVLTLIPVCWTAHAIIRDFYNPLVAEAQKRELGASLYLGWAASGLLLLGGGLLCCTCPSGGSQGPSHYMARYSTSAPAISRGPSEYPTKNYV
Description: FACS on HEK293T-CLDN6 cells. The method, then: (§1) To detect a binding capacity of a chimeric or humanized antibody to CLDN6, a CLDN6-expressing cell line HEK293T-CLDN6 and a CLDN6-negative control cell line HEK293T were washed three times with PBS. 1×10⁵ test cells and 50 μL of an antibody solution to be tested were added to a 96-well plate, and incubated at 4° C. for 1 h. The cells were then washed three times with PBS. […] Finally, cells were washed three times with PBS, and signals were read using FACS.
(§2) An EC50 value (a concentration of an antibody that binds to half of binding sites at equilibrium) is calculated through nonlinear regression.

The target of assay [2] is T1, human CLDN6. Description: FACS on HEK293T-CLDN6 cells. The method, then: as §1, §2
The source holds these as a separate data set.

The target in assay [3] is T1, human CLDN6. Nature of the assay: FACS on HEK293T-CLDN6 cells. How it is done:
as §1, §2
The source holds these as a separate data set.

Assay [4] deals with T1, human CLDN6. Nature of the assay: FACS on HEK293T-CLDN6 cells. How it is done: as §1, §2
The source holds these as a separate data set.

Assay [5] addresses T1, human CLDN6. Description: FACS on HEK293T-CLDN6 cells. How it is done:
as §1, §2
This is another data set of the same source.

The target of the next assay is T2, mouse CLDN6 (mouse, UniProt Q9Z262 1-219).
T2 construct: whole, on cells; also called CHO-K1-Mouse CLDN6
T2 sequence (looked up): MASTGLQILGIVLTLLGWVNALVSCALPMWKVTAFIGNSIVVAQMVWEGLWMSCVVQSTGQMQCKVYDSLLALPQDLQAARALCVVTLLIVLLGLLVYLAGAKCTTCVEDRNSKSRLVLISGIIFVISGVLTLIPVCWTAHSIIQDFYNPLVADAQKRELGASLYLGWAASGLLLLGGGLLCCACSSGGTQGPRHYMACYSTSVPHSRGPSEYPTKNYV
Nature of the assay: FACS on CHO-K1-Mouse CLDN6 cells.

Assay [6] addresses T1, human CLDN6. Description: FACS on 293T-CLDN6 cells, 10 µg/mL.
In assay [7] the target is T3, human CLDN9 (human, UniProt O95484 1-217).
T3 construct: whole, on cells; also called HEK293T-CLDN9
T3 sequence (looked up): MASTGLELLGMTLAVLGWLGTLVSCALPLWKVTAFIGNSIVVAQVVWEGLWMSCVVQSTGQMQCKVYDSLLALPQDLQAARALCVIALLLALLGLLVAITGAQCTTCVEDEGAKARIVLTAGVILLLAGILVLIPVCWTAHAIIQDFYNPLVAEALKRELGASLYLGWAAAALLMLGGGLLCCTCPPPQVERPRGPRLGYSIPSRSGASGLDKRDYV
Description: FACS on 293T-CLDN9 cells, 10 µg/mL. How it is done: (§3) 50 μL of an antibody to be tested was added to a 96-well plate, then 1× 10⁵ cells were added to each well, and incubation was conducted at 4° C. for 1 h. Cells were washed three times with PBS. […] Finally, cells were washed three times with PBS, and signals were read using FACS. Binding capacities of the antibody to CLDN9, CLDN3, and CLDN4 were analyzed separately based on detection data.

For assay [8], the target named is T1, human CLDN6. Description: FACS on 293T-CLDN6 cells, 10 µg/mL. The source holds these as a separate data set.
Assay [9] concerns the target T3, human CLDN9. Description: FACS on 293T-CLDN9 cells, 10 µg/mL. The method, then:
as §3
The source holds these as a separate data set.

Assay [10] addresses T3, human CLDN9. Nature of the assay: FACS on 293T-CLDN9 cells, 10 µg/mL. How it is done:
as §3
This is another data set of the same source.

The target of assay [11] is T1, human CLDN6. Description: FACS on CLDN6 cells (same value as Table 3, HEK293T-CLDN6).
Assay [12] concerns the target T1, human CLDN6. Nature of the assay: FACS on PA-1 tumour cells; target on the cells taken as CLDN6. The method, then: The specific binding of a chimeric antibody to a tumor cell was detected by FACS, and an EC50 value was calculated accordingly to evaluate an inhibitory effect of the chimeric antibody on the tumor cell.
(§4) 50 μL of an antibody to be tested was added to a 96-well plate, then 1×10⁵ cells were added to each well, and incubation was conducted at 4° C. for 1 h. Cells were washed three times with PBS. […] Finally, cells were washed three times with PBS, and signals were read using FACS. A binding capacity of the antibody to each tumor cell was analyzed based on detection data.

Assay [13] concerns the target T1, human CLDN6. The assay is described as above. How it is done:
as §4
This is another data set of the same source.

Assay [14] concerns the target T1, human CLDN6. The description is as above. How it is done:
as §4
The source holds these as a separate data set.

The target in assay [15] is T1, human CLDN6. Nature of the assay: FACS on HepG2 tumour cells; target on the cells taken as CLDN6. How it is done: as §4
Assay [16] has as its target T1, human CLDN6. Described as above. The method, then:
as §4
The source holds these as a separate data set.

Assay [17] addresses T1, human CLDN6. Description: ratio of FACS Geom.Mean on 293T-CLDN6 over 293T-CLDN9, 10 µg/mL. How it is done: as §3
For assay [18], the target named is T1, human CLDN6. Description: FACS on HepG2 tumour cells, 5 µg/mL; target on the cells taken as CLDN6. The method, then:
as §4

Read-outs that look alike come from different tables or passages of the source.

B1: IMAB027 (antibody, human IgG1, kappa, V domains shown)
VH: EVQLQQSGPELVKPGASMKISCKASGYSFTGYTMNWVKQSHGKNLEWIGLINPYNGGTIYNQKFKGKATLTVDKSSSTAYMELLSLTSEDSAVYYCARDYGFVLDYWGQGTTLTVSS
VL: IVLTQSPAIMSASPGEKVTITCSASSSVSYLHWFQQKPGTSPKLWVYSTSNLPSGVPARFGGSGSGTSYSLTISRMEAEDAATYYCQQRSIYPPWTFGGGTKLEIKR
notes: variable regions of mAb206-LCC on human IgG1 constant regions; also called benchmark antibody; control antibody
For the molecule B1, the EC50 with human CLDN6 [1] was determined as 0.0727 µg/mL; with human CLDN6 [2], 0.213 µg/mL; with human CLDN6 [3], 0.282 µg/mL; with human CLDN6 [4], 0.0469 µg/mL; with human CLDN6 [5], 0.0461 µg/mL; with mouse CLDN6, 0.181 µg/mL. The EC50 was 0.213 µg/mL with human CLDN6 [11]; 0.0741 µg/mL with human CLDN6 [12]; 0.223 µg/mL with human CLDN6 [13]; 0.141 µg/mL with human CLDN6 [14]; 0.242 µg/mL with human CLDN6 [15]; 0.515 µg/mL with human CLDN6 [16]. Moreover, the Geom.Mean stood at 44300 in the assay with human CLDN6 [6]; 985 with human CLDN9 [7]; 23600 in the assay with human CLDN6 [8]; 3810 with human CLDN9 [9]; 1810 in the assay with human CLDN9 [10]; 970 with human CLDN6 [18]. The CLDN6/CLDN9 ratio in the assay with human CLDN6 [17] was determined as 45.

Usually EC50 stands for the concentration that produces a half-maximal response. High values mean weaker potency, low ones greater potency.
